The chains are these.
B1: Hairpin Ribozyme (parent)
chain: GUCCUCUUUCACGUGCGCGUGAAAGAGAGAAGUGAACCAGAGAAACACACGUUGUGGUAUAUUACCUGGUA

The series covers variants of B1. Briefly: self-cleavage, relative activity (ratio to wild type); higher = more cleavage; co-transcriptional.
With GUCCUCUUUCACGUGCGCGUGAAAGAGAGAAGUGAACCAGAGAAACACACGUUGUCGUAUAUUACGUGGUA, the self-cleavage stood at 0.209.

On to GUCCUCUUUCACGUGCGCGUGAAAGAGAGAAGUGAACCAGAGAAACACACGUUGUCGUAUAUUACUUGGUA, for which the self-cleavage was determined as 0.199. The value for GUCCUCUUUCACGUGCGCGUGAAAGAGAGAAGUGAACCAGAGAAACACACGUUGUCGUAUAUUACAUGGUA was 0.156; that for GUCCUCUUUCACGUGCGCGUGAAAGAGAGAAGUGAACCAGAGAAACACACGUUGUGAUAUAUUACCCGGUA was 0.123. For the variant GUCCUCUUUCACGUGCGCGUGAAAGAGAGAAGUGAACCAGAGAAACACACGUUGUGAUAUAUUAGCUGGUA, the self-cleavage came to 0.291. Take GUCCUCUUUCACGUGCGCGUGAAAGAGAGAAGUGAACCAGAGAAACACACGUUGUGAUAUAUUAACUGGUA: the self-cleavage came to 0.222. The figure for GUCCUCUUUCACGUGCGCGUGAAAGAGAGAAGUGAACCAGAGAAACACACGUUGUUGUAUAUAACCUGGUA is 0.157; for GUCCUCUUUCACGUGCGCGUGAAAGAGAGAAGUGAACCAGAGAAACACACGUUGUGAUAUAUUACCUGGUG it is 0.112; for GUCCUCUUUCACGUGCGCGUGAAAGAGAGAAGUGAACCAGAGAAACACACGUUGUGAUAUAUUACCUGGUC it is 0.4. The figure for GUCCUCUUUCACGUGCGCGUGAAAGAGAGAAGUGAACCAGAGAAACACACGUUGUCGUAUGUUACCUGGUA is 0.155; for GUCCUCUUUCACGUGCGCGUGAAAGAGAGAAGUGAACCAGAGAAACACACGUUGUGAUAUAUUUCCUGGUA it is 0.119. As for GUCCUCUUUCACGUGCGCGUGAAAGAGAGAAGUGAACCAGAGAAACACACGUUGUCGUAUAUUACCUGAUA, the self-cleavage was determined as 0.135.

Turning to GUCCUCUUUCACGUGCGCGUGAAAGAGAGAAGUGAACCAGAGAAACACACGUUGUAGUAUAUUACCUGGUC, the self-cleavage came to 0.404. With GUCCUCUUUCACGUGCGCGUGAAAGAGAGAAGUGAACCAGAGAAACACACGUUGUUGUAUAUUACAUGGUA, the self-cleavage was found to be 0.208. As to GUCCUCUUUCACGUGCGCGUGAAAGAGAGAAGUGAACCAGAGAAACACACGUUGGGGUAUAUUACCUGGCA, the self-cleavage is 0.264. Consider GUCCUCUUUCACGUGCGCGUGAAAGAGAGAAGUGAACCAGAGAAACACACGUUGGGGUAUACUACCUGGUA, for which the self-cleavage was found to be 0.161.

Take GUCCUCUUUCACGUGCGCGUGAAAGAGAGAAGUGAACCAGAGAAACACACGUUGGGGUAUAAUACCUGGUA: the self-cleavage is 0.104. The value for GUCCUCUUUCACGUGCGCGUGAAAGAGAGAAGUGAACCAGAGAAACACACGUUGUCGUAUAUUAACUGGUA was 0.274; that for GUCCUCUUUCACGUGCGCGUGAAAGAGAGAAGUGAACCAGAGAAACACACGUUGUCGUAUACUACCUGGUA was 0.244. Consider GUCCUCUUUCACGUGCGCGUGAAAGAGAGAAGUGAACCAGAGAAACACACGUUGUCGUAGAUUACCUGGUA, for which the self-cleavage was 0.111. As for GUCCUCUUUCACGUGCGCGUGAAAGAGAGAAGUGAACCAGAGAAACACACGUUGUGAUAUAUUACCUGCUA, the self-cleavage was 0.141. The figure for GUCCUCUUUCACGUGCGCGUGAAAGAGAGAAGUGAACCAGAGAAACACACGUUGUGAUAUAUUACCUGUUA is 0.121; for GUCCUCUUUCACGUGCGCGUGAAAGAGAGAAGUGAACCAGAGAAACACACGUUGUGAUAUAUUACUUGGUA it is 0.2. On to GUCCUCUUUCACGUGCGCGUGAAAGAGAGAAGUGAACCAGAGAAACACACGUUGUGAUAUAUUACGUGGUA, for which the self-cleavage was found to be 0.103. As to GUCCUCUUUCACGUGCGCGUGAAAGAGAGAAGUGAACCAGAGAAACACACGUUGUCGUUUAUUACCUGGUA, the self-cleavage amounted to 0.173. The value for GUCCUCUUUCACGUGCGCGUGAAAGAGAGAAGUGAACCAGAGAAACACACGUUGUAGUAUAUUACCUGUUA was 0.258. The value for GUCCUCUUUCACGUGCGCGUGAAAGAGAGAAGUGAACCAGAGAAACACACGUUGUUGAAUAUUACCUGGUA was 0.0912; that for GUCCUCUUUCACGUGCGCGUGAAAGAGAGAAGUGAACCAGAGAAACACACGUUGUAGUAUAAUACCUGGUA was 0.182; that for GUCCUCUUUCACGUGCGCGUGAAAGAGAGAAGUGAACCAGAGAAACACACGUUGUAGUAUACUACCUGGUA was 0.141. On to GUCCUCUUUCACGUGCGCGUGAAAGAGAGAAGUGAACCAGAGAAACACACGUUGUCGUAUAUUACCUAGUA, for which the self-cleavage came out at 0.153. The value for GUCCUCUUUCACGUGCGCGUGAAAGAGAGAAGUGAACCAGAGAAACACACGUUGUUGUAUAUUACCUUGUA was 0.276. The value for GUCCUCUUUCACGUGCGCGUGAAAGAGAGAAGUGAACCAGAGAAACACACGUUGUCAUAUAUUACCUGGUA was 0.115; that for GUCCUCUUUCACGUGCGCGUGAAAGAGAGAAGUGAACCAGAGAAACACACGUUGUUGUAUAUUACCUGGUU was 0.177; that for GUCCUCUUUCACGUGCGCGUGAAAGAGAGAAGUGAACCAGAGAAACACACGUUGUUGUAUAUUACCUGGUC was 0.454.

On to GUCCUCUUUCACGUGCGCGUGAAAGAGAGAAGUGAACCAGAGAAACACACGUUGUGAUAGAUUACCUGGUA, for which the self-cleavage was found to be 0.21. The figure for GUCCUCUUUCACGUGCGCGUGAAAGAGAGAAGUGAACCAGAGAAACACACGUUGUAGGAUAUUACCUGGUA is 0.274; for GUCCUCUUUCACGUGCGCGUGAAAGAGAGAAGUGAACCAGAGAAACACACGUUGUAGAAUAUUACCUGGUA it is 0.0823; for GUCCUCUUUCACGUGCGCGUGAAAGAGAGAAGUGAACCAGAGAAACACACGUUGUAGCAUAUUACCUGGUA it is 0.162. The value for GUCCUCUUUCACGUGCGCGUGAAAGAGAGAAGUGAACCAGAGAAACACACGUUGUAGUAUAUUUCCUGGUA was 0.135. The figure for GUCCUCUUUCACGUGCGCGUGAAAGAGAGAAGUGAACCAGAGAAACACACGUUGUAGUAUAUUGCCUGGUA is 0.12; for GUCCUCUUUCACGUGCGCGUGAAAGAGAGAAGUGAACCAGAGAAACACACGUUGUAGUAUAUUCCCUGGUA it is 0.0783; for GUCCUCUUUCACGUGCGCGUGAAAGAGAGAAGUGAACCAGAGAAACACACGUUGUCGUAUAUUACCUGGCA it is 0.134.

GUCCUCUUUCACGUGCGCGUGAAAGAGAGAAGUGAACCAGAGAAACACACGUUGUCGUAUAUUACCUGGAA: the self-cleavage was 0.272. The value for GUCCUCUUUCACGUGCGCGUGAAAGAGAGAAGUGAACCAGAGAAACACACGUUGUAGUGUAUUACCUGGUA was 0.167; that for GUCCUCUUUCACGUGCGCGUGAAAGAGAGAAGUGAACCAGAGAAACACACGUUGUUGUAUUUUACCUGGUA was 0.124. The figure for GUCCUCUUUCACGUGCGCGUGAAAGAGAGAAGUGAACCAGAGAAACACACGUUGUCGUAUAUUACCCGGUA is 0.138; for GUCCUCUUUCACGUGCGCGUGAAAGAGAGAAGUGAACCAGAGAAACACACGUUGUCGAAUAUUACCUGGUA it is 0.2; for GUCCUCUUUCACGUGCGCGUGAAAGAGAGAAGUGAACCAGAGAAACACACGUUGUCGCAUAUUACCUGGUA it is 0.246.

With GUCCUCUUUCACGUGCGCGUGAAAGAGAGAAGUGAACCAGAGAAACACACGUUGGGGUACAUUACCUGGUA, the self-cleavage worked out at 0.408. The figure for GUCCUCUUUCACGUGCGCGUGAAAGAGAGAAGUGAACCAGAGAAACACACGUUGUUGUAUAUUCCCUGGUA is 0.177. Take GUCCUCUUUCACGUGCGCGUGAAAGAGAGAAGUGAACCAGAGAAACACACGUUGUUGUAUAAUACCUGGUA: the self-cleavage amounted to 0.186.

GUCCUCUUUCACGUGCGCGUGAAAGAGAGAAGUGAACCAGAGAAACACACGUUGUUGUAUACUACCUGGUA: the self-cleavage was 0.122. For the variant GUCCUCUUUCACGUGCGCGUGAAAGAGAGAAGUGAACCAGAGAAACACACGUUGUAGUACAUUACCUGGUA, the self-cleavage is 0.219. In the case of GUCCUCUUUCACGUGCGCGUGAAAGAGAGAAGUGAACCAGAGAAACACACGUUGUAGUAAAUUACCUGGUA, the self-cleavage was determined as 0.121. For GUCCUCUUUCACGUGCGCGUGAAAGAGAGAAGUGAACCAGAGAAACACACGUUGUUGUGUAUUACCUGGUA, the self-cleavage came to 0.238.

Turning to GUCCUCUUUCACGUGCGCGUGAAAGAGAGAAGUGAACCAGAGAAACACACGUUGUAGUAUAUUACCCGGUA, the self-cleavage came out at 0.129.

As for GUCCUCUUUCACGUGCGCGUGAAAGAGAGAAGUGAACCAGAGAAACACACGUUGUAGUAUAUUACCGGGUA, the self-cleavage is 0.104. In the case of GUCCUCUUUCACGUGCGCGUGAAAGAGAGAAGUGAACCAGAGAAACACACGUUGUGAUAUAUUACCUUGUA, the self-cleavage is 0.169. The figure for GUCCUCUUUCACGUGCGCGUGAAAGAGAGAAGUGAACCAGAGAAACACACGUUGUGAUAUAUUACCUCGUA is 0.207; for GUCCUCUUUCACGUGCGCGUGAAAGAGAGAAGUGAACCAGAGAAACACACGUUGUCGUAUAUUACCUGGUC it is 0.315; for GUCCUCUUUCACGUGCGCGUGAAAGAGAGAAGUGAACCAGAGAAACACACGUUGGGGUAUAUUACCAGGUA it is 0.219. For GUCCUCUUUCACGUGCGCGUGAAAGAGAGAAGUGAACCAGAGAAACACACGUUGUCGUAUAUUUCCUGGUA, the self-cleavage was found to be 0.0562. Regarding GUCCUCUUUCACGUGCGCGUGAAAGAGAGAAGUGAACCAGAGAAACACACGUUGGGGUAUAUAACCUGGUA, the self-cleavage worked out at 0.346. The figure for GUCCUCUUUCACGUGCGCGUGAAAGAGAGAAGUGAACCAGAGAAACACACGUUGUGAAAUAUUACCUGGUA is 0.169; for GUCCUCUUUCACGUGCGCGUGAAAGAGAGAAGUGAACCAGAGAAACACACGUUGUGAGAUAUUACCUGGUA it is 0.123. The value for GUCCUCUUUCACGUGCGCGUGAAAGAGAGAAGUGAACCAGAGAAACACACGUUGUGACAUAUUACCUGGUA was 0.21; that for GUCCUCUUUCACGUGCGCGUGAAAGAGAGAAGUGAACCAGAGAAACACACGUUGGGGGAUAUUACCUGGUA was 0.206; that for GUCCUCUUUCACGUGCGCGUGAAAGAGAGAAGUGAACCAGAGAAACACACGUUGUUCUAUAUUACCUGGUA was 0.144. The figure for GUCCUCUUUCACGUGCGCGUGAAAGAGAGAAGUGAACCAGAGAAACACACGUUGUUAUAUAUUACCUGGUA is 0.222; for GUCCUCUUUCACGUGCGCGUGAAAGAGAGAAGUGAACCAGAGAAACACACGUUGUUUUAUAUUACCUGGUA it is 0.204. As to GUCCUCUUUCACGUGCGCGUGAAAGAGAGAAGUGAACCAGAGAAACACACGUUGUAGUAUAUUAACUGGUA, the self-cleavage came to 0.097. The value for GUCCUCUUUCACGUGCGCGUGAAAGAGAGAAGUGAACCAGAGAAACACACGUUGUAGUAUAUUAGCUGGUA was 0.214; that for GUCCUCUUUCACGUGCGCGUGAAAGAGAGAAGUGAACCAGAGAAACACACGUUGGGGUAUAUUACCUGAUA was 0.178.

Regarding GUCCUCUUUCACGUGCGCGUGAAAGAGAGAAGUGAACCAGAGAAACACACGUUGUUGUAUAUUACCUGGUA, the self-cleavage worked out at 0.157. The value for GUCCUCUUUCACGUGCGCGUGAAAGAGAGAAGUGAACCAGAGAAACACACGUUGUCGUAUAUUACCUGGUA was 0.156. On to GUCCUCUUUCACGUGCGCGUGAAAGAGAGAAGUGAACCAGAGAAACACACGUUGUAGUAUAUUACCUGGUA, for which the self-cleavage was 0.174.

These data come from the RNAGym collection of RNA variant scans (doi:10.7554/elife.80360).
